Source: the DeepSol protein solubility set

test: soluble on expression in E. coli; label from the status in PepcDB or PDB records

Row | Sequence | soluble on expression in E. coli
1 | MRRRGKGGGSVFYHEGKGKWVAQLTWIDPATGRKVKREKHCETRKEAERALADMVVAQAKGLLTDPSRLTTRDFALDYLKRLEREGLRPNSIRLAQEELAHALPSLKDPKAHDPLGRMRLQEVKPVHVRAAVDRVAEAGYAPRTVGRVLMRLKALFREALRLELVARNPAEAVRLRLPKGEKTARALEPQEVARLLETAEASRSKDMALLLRLMLETGLRRGEALALQWRDIDLEAGELTVWRSWTKARGKGAFSEPKTPTAKRKVPLPRGLLLRLKARREELLERLTPKEVDGLFLVGGVKPVDPDAFNHYLRRLAERAGLGRVRVHDLRHTWATLALSRGVPLEVVSERLGHASPTITLNVYRHLLEEERRGWVLDLEELLYPAPRAQA | soluble
2 | MRSDKVGSIKDLPSLPAGVKFDPSDKEILMHLEAKVSSDKRKLHPLIDEFIPTLEGENGICYTHPEKLPGVSKDGQVRHFFHRPSKAYTTGTRKRRKVSTDEEGHETRWHKTGKTRPVLSQSGETGFKKILVLYTNYGRQKKPEKTNWVMHQYHLGSSEDEKDGEPVLSKVFYQTQPRQCGSMEPKPKNLVNLNRFSYENIQAGFGYEHGGKSEETTQVIRELVVREGDGSCSFLSFTCDASKGKESFMKNQ | soluble
3 | MRSLLIALAATVALSLPARADEVTVAVTAIVEHPALDAARDGVKDALAAAGYKEGENLKFIYESAQGNPATAAQIARQFAGEAPSVIVPISTPSAQAVVSSTRDIPVVFTAVSDPLGAQLVKDMEKPGGNVTGLSDLSPVAEHVALIKEILPNVKTIGYLYNSGEANSVSLLAVLKEEAEKAGLSVIESAATKSAEVQGAARALVGRADAIYIPTDNTIISALEGAVAVAEESKLPLFTADTDSVSRGAVAALGFNYYDVGKQTGEVVVRVLKGENPGDIAVKVAAGTDLVINKGAATRMGVTLPESVVGRATRTIE | not soluble
4 | MRSQDKYERFIQLLAHEFFHLWNVKRIRPQALEVFNYDQENYTPSLWFCEGTTSYYDLLIPLRAGIYDAKTYLNYWSKEISRLITTPGRKVQPLSESSFDAWIKLYRPDTNTGNSQVSYYLKGELEHHHHHH | not soluble
5 | MRSRRGLLIVLSGPSGVGKGTVRKELFSHEDTRFQYSISVTTRKPREGEVDGVDYFFKEREEFEEMIRNEKLLEWAEFVGNYYGTPIDYVEKTLQEGKDVFLEIEVQGAIQVKKAFPEGVFIFLAPPSLSELKNRIVGRGTETEDVIENRLTVAKEEIDMMDAYDYVVENDQVELACERIKAIVVGEHCRRERVAKYYKEMTEGL | not soluble
6 | MRSTELIVERGPSRNEAHSMVNESPSNQPQEQFSLEPKWKTAAAPSCESSSEEAAYPKGNEEEEHNEARPRALCRLTDVSTDHYAKNPDSEEEDAQDEAEGDGSHVGAIPAEAATTARPHDLHKAKKKRSNHAKETKAAETLEKPAAPRKKKPMYKVNIGNVERHPPVPEGVNTPRSVMLCKECGVNPSELARYDRKHFQGAGVSDEVAELRYQSYEKRRCARMAQLKPAYKESIKYDLEDPVSVPAAKRKAQAAEEAPARPAAAAQAAAPPPKLLDEEAQMQRQFEAQHQRLLEQERRKTVTSGYDSDGRRRSPPRAGHFYGASVRSVGSAKSPGRYSRNTSVGARPTVDQPYSAAKIYSASIVESRPLTQSEVIMIDEINEREAHRIDTQERAFVIQENKQLMHVERELIRERLACVRVQKNAEDREKMQQKMHKRNEARQNVVAKRRKKLEAERQARIQDSVAEKAARCHTTNPYASLMLRQMSGFSTCHTSSSFPSQGADVSASREQSSEAE | soluble
7 | MRSVRRREALREWIMAKLYFNYSTMNAGKSTMLLQASYNYQERGMRTLIFTAAFDDRAGVGRVASRIGLSSEARTFDENTDLFAEVAALHAQAPVACVFVDEANFLSEHHVWQLANIADRLNIPVMTYGLRTDFQGKLFPASKELLAIADELREIRTICHCGRKATMVARFDSEGKVVTEGAQIEVGGNGKYVSFCRRHWVETFNCSLEHHHHHH | not soluble
8 | MRTFESVADLAAAAGEKVGQSDWVTITQEEVNLFADATGDHQWIHVDPERAAAGPFGTTIAHGFMTLALLPRLQHQMYTVKGVKLAINYGLNKVRFPAPVPVGSRVRATSSLVGVEDLGNGTVQATVSTTVEVEGSAKPACVAESIVRYVA | soluble
9 | MRTGKQYLESLNDGRVVWVGNEKIDNVATHPLTRDYAERVAQFYDLHHRPDLQDVLTFVDADGVRRSRQWQDPKDAAGLRVKRKYHETILREIAAGSYGRLPDAHNYTFTTYADDPEVWEKQSIGAEGRNLTQNIHNFLKLLREKDLNCPLNFVDPQTDRSSDAAQARSPNLRIVEKTDDGIIVNGVKAVGTGIAFGDYMHIGCLYRPGIPGEQVIFAAIPTNTPGVTVFCRESTVKNDPAEHPLASQGDELDSTTVFDNVFIPWEQVFHIGNPEHAKLYPQRIFDWVHYHILIRQVLRAELIVGLAILITEHIGTSKLPTVSARVAKLVAFHLAMQAHLIASEETGFHTKGGRYKPNPLIYDFGRAHFLQNQMSVMYELLDLAGRSSLMIPSEGQWDDSQSGQWFVKLNNGPKGNPRERVQIGRVIRDLYLTDWGGRQFMFENFNGTPLFAVFAATMTRDDMSAAGTYGKFASQVCGIEFGGAEPTAYAATADYAKALDKGLAPEPAAAESATS | soluble
10 | MRTIERTTIFKRDFKREMKGQHRHLLDTDLRKVIAALANDQPLEIRYRDHALTGNWSNYRDCHIRPDLVLIYRLIGQDRLVLVRLGSHSQLDL | not soluble
11 | MRTMIYKILTGCYIVAALVLVAACNDGLDIQTKYPFTVETMPVPKELKVNETAEIRCELKREGRWEDTRYTIRWFLFDGEGTLKLDDGTVLLPNDRYPLEKETFRLYYTPLSDEQSGFTVWVEDSDGQAVELEFDFNADNDKEDGYGTELEHHHHHH | soluble
12 | MRTSDSHLPLSNLARSDSIEFKDAVINEKWVHSANRRKGHLTPKAPEKKSGWFGGQKSEEELLMERVEQHELEELQTFIAQKLFRVDGIICDEETRILLVEKLMNAKEYPTINHDELAHRYGSSMAGWLRDRLVPSMSDCSSVLQRAAAEFYQNKMSDPLCNWGQLNPEHVSMVAARIAKFSEEMSSKVKWSLLVEPGKFSCHLTEFVQEFNRLDRMFVSNELSDEESLQTAFNANYLTKARSKMVPCAEFSRVKLNDGLGRLDDRNELRNGMFSDEHEFLQEEGYTAKSTYGTTDFIHANYVKGGPLLNTFICAQAPLKNTQEDFWRMVFQEKCQFIVMLNSAVDSSTLGPLDSANRNHCPYYWPRAENESLRFGSFHITCMKVDSKADPLFTITKLKVQKVGGNLLDAEFDEELFLEHWQWDWQYLGDVHWPFRVLRKARQLSTPTIVQCIDGCSKSGTLVSIETALMHFIRGSPITKSLILQSCVFVRLQRRLSVSSVLLYLFIYRVILRWIEPYVNKWYHRAALGLRFKSIGFIQKYNAMIQEFSRITPAY | not soluble
13 | MRTSFFAAAALLAVSAFAQAHEYNAGQLHIEHPWALALPPTSPNGAAYFVVQNHGKENDTLLGADTPRAASAEVHEHVHKNGMMSMQKVDSVDVAPGKDLRFAPGGYHLMLMGLKQPLVAGERFPLTLHFRKAGDVPVEIVVESKAPAEQGGHEQHGH | soluble
14 | MRTSSGQILTVTKEISLQASPTEIWSELIHINEVDSIEKKSIISSTLGFPRHIRTHLDTARVGGKRTAYYEKGLTFEETITAYEPERLMILDIKTDPDKISAQVMDEHILIGGKHLDILEDTYELQALSNGCSKLKLTSKFYINTPFNWYAGLWGNYLMSDILKNELELIKNRAEAKLEHHHHHH | soluble
15 | MRTVTGAILAMNLEVKDFVHRDVEEADRRLREIGARKILLQLPDGLKPYAFDYFTYLSQRYDVILSSSPVYGACDIGPSYLYDRVDAIVQVGHSIMRNVKYPRPVIFIEHYRTVDVEDINTEALKNYRRIGLIYSIQYRPVADRVKRILESKGFEVIIGRSDRRMTYDGQVLGCNFSSVHSVEAEVEAFVIVSTGSFHALGSQISTERPVFLLDLNEMSLRSMEKEADTFIRKRYAQIYRAMDAKRICFLVDTRIGQRREKLARMLMDRARDLGKEAVLAYTDNISDQDIQNMGCDLAVYTGCPRVPIDDQDRFTVPVLTPAEFSMAFFKSSKRYVLDEIVSVDEFTDQLEHHHHHH | not soluble
16 | MRTVVPFDPRDPKSRLAEFFADAEERRGFAYAMLADVLGAVRDAGGDPVVVATAPVSRPVDAPVTVDDRALSTAVAAAIADGPLPTAVVMADLALATPDAIRRVFAASGDVVLAPGSGGGTNVVLARTADVPVSYHGVSFRDHVTAAERAGLTVTTVDSFRLAADVDDASDLVDVFVHNTRRTREWLIAGGWRLAVDDGTPTVVREPND | not soluble
17 | MRVAIVGTGIAGNAAAWALSQRYPVTVYERELRAGGHSHTVTVDYDGTTIPVDIGFIVYNQLNYPDLTAMFAHLGVETVESCMSFSVSADAGRFEWKGGGSNWLETADGLFAQRRNLLSPSYLQMLRHILVFNEKSVEDFKTGALAGLTLGDYFESRKFAPRLLTDYLAPMGAAIWSAPASQILDFPAENFVAFFNNHRLLHYERPIWRTVKGGSARYVEKLTSAFKDDMRLGAAVTSIERSPKGVIVRDSLGGLGVFDHVVIGAHSDQALAMLSDASDIERDILGSIGYAPNMVYLHRDPRLMPKRKRAWASWNFLRWQREGSPVNDVAVTYWMNRLQGIDADKPLFVSLNPPFEPAPELTFGRYACDHPQYTAKAFAAQRRVGELQGHRNTWFCGAWTGYGFHEDGLRSGLAVAEHLGAPVPWRGPPSEFREAAELEHHHHHH | soluble
18 | MRVCLLASGSKGNSLFIETGESRILIDAGLSARELVRRLSLIGVDAAQLDALFISHEHTDHVRGAGVLARKYRIPVHVSYPTHREISGQIHGVYVTEFESGYSFTFRDLLVDPFRITHDACDPVGFTVESREGKVGIATDLGTATRLVADKLAGCRALVVESNHDEGMLMDGPYPWHLKQRIKSRHGHLSNNDTAALLAEVINPGLEGLFLAHLSEVNNDPVMARQVTASFLAGQNICSPRLVVGDQYRPSELLNILEHHHHHH | not soluble
19 | MRVDLNSDLGESFGRYKLGLDEEVMKYITSANVACGWHAGDPLVMRKTVRLAKENDVQVGAHPGYPDLMGFGRRYMKLTPEEARNYILYQVGALYAFAKAEGLELQHVKPHGALYNAMVKEEDLARAVIEGILDFDKDLILVTLSNSRVADIAEEMGLKVAHEVFADRAYNPDGTLVPRGRPGAVIEDKEEIAERVISMVKDGGIRAINGEWVDLKVDTICVHGDNPKAVEITSYIRKVLEEEGVKIVPMKEFIR | soluble
20 | MRVENSNGQSQPAATSKTVKDNAEIYYDNDDSDRFYFHVWGGEDIHVGLYKEPVDQDEIREASLRTDEWLASELAMTGVLQRQAKGLDLGAGYGGAARFLVRKFGVSIDCLNIAPVQNKRNEEYNSQAGLADNITVKYGSFLEIPCEDNSYDFIWSQDAFLHSPDKLKVFQECARVLKPGGVMAITDPMKEDGIDKSSIQPILDRIKLHDMGSLGLYRSLAKECGLVTLRTFSRPDSLVHHYSKVKAELIKRSSEIASFCSPEFQANMKRGLEHWIEGGRAGKLTWGGMLFRKSDKI | soluble
21 | MRVIVTEYQPAWVEQFEEEAQALKQILKENCLKVEHIGSTSVPNLAAKPIIDFLVIVEEIEKVDLLQWEFERIGYEYMGEFGLSGRRYLRKGPIKRTHHVHIYQFDNTQEILRHLAFRNYLRENPAIATTYGTLKKQLAQAHPDSIDKYMDGKDAFIKKIEKEALKKYWEK | not soluble
22 | MRVLIRSSASGSEYWDTEEKRNVFVPKGQEPDFEVTENPESMLSKEADLHVGGLPITVGNVTIDTDGIKGERLLTTASAADDEEQDELVPSDDESVVLEEMNVKELREYAKRKGIEIPSAVRAKGEILNIIKESE | not soluble
23 | MRVLITGATGGLGGAFARALKGHDLLLSGRRAGALAELAREVGARALPADLADELEAKALLEEAGPLDLLVHAVGKAGRASVREAGRDLVEEMLAAHLLTAAFVLKHARFQKGARAVFFGAYPRYVQVPGFAAYAAAKGALEAYLEAARKELLREGVHLVLVRLPAVATGLWAPLGGPPKGALSPEEAARKVLEGLFREPVPALLEV | soluble
